From patent publication US20220088115A1, “PHARMACEUTICAL COMPOSITION, COMPRISING INHIBITORY PEPTIDE AGAINST FAS SIGNALING, FOR PREVENTION OR TREATMENT OF OBESITY, FATTY LIVER, OR STEATOHEPATITIS” (SIGNET BIOTECH INC., priority 2018, published 2022)
Values belong to the molecule of their own block, whether it stands above or below them. Where a SMILES comes first, the peptide text is derived from it. Where no end group is shown, it is not given here.

Key:
[1] = Stability of peptides in sera; assay type: in vitro ADME; settings: compared among cyclic FBP-8, linear FBP-8 and FBP-7
[2] = tested on: obese person; settings: in vivo; cited from earlier work
[3] = target: T1, Fas (Homo sapiens, UniProt P25445); experiment: Binding of Alexa647-labeled peptides to Fas-expressing Jurkat cell line; settings: Jurkat cell line always expressing Fas; Alexa647-labeled peptide
T1 construct: A Jurkat cell line, in which Fas is always expressed; host or cells: Jurkat
T1 sequence (P25445 26-335): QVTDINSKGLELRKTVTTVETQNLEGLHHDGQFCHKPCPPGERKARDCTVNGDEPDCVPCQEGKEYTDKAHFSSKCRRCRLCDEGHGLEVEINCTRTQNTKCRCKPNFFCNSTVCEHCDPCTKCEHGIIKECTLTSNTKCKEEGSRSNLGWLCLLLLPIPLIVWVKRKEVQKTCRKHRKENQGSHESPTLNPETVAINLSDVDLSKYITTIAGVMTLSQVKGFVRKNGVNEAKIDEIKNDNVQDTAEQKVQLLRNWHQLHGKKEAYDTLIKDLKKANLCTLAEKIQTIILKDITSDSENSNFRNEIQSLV
Procedure: A Jurkat cell line which is a human blood cancer cell line and a 3T3L1 cell line which is a murine adipocyte were purchased from ATCC (USA), and the Jurkat cell line was cultured in an RPMI culture medium containing 10% fetal bovine serum (FBS), 1% penicillin, 1% streptomycin, and 25 mM glucose.
A Jurkat cell line, in which Fas is always expressed, was treated with an FITC-labeled Fas antibody and treated with Alexa647-labeled FBP-8, FBP-A, FBP-7 or control peptide (YCNSTVCY; CtrFBP).

[4] = tested on: 3T3L1 cell line; experiment: Apoptosis level in 3T3L1 cell line treated with FasL and peptide (annexin V flow cytometry); assay type: cell-based, murine; settings: differentiated 3T3L1 treated with Fas ligand and peptide
Procedure: The 3T3L1 cell line was cultured in a DMEM culture medium containing 10% FBS, 1% penicillin, 1% streptomycin, and 25 mM glucose. The 3T3L1 cell line was aliquoted into the above DMEM culture solution at a concentration of 2×10^5 cells/ml to induce adipocyte maturation for 3 days, and then replaced with a culture solution containing insulin to induce adipocyte maturation again for 3 days. Thereafter, the 3T3L1 cell line was further cultured in the above DMEM culture solution for 2 days to achieve complete maturation of adipocytes.
The 3T3L1 cell line was treated with a Fas ligand (FasL) at a concentration of 500 ng/ml to induce apoptosis, and FBP signal blocking peptides (FBP-8. FBP-A and FBP-7) and CtrFBP bound to Alexa647 were treated, respectively. After 4 hours of peptide treatment, cells were washed with DPBS and treated with FITC-bound annexin V (BD Pharmingen) to analyze the apoptosis inhibitory effect by a flow cytometer.

[5] = tested on: obesity model mice; experiment: TUNEL staining of dead cells, obesity model mice, intravenous FBP-8; assay type: in vivo, C57BL/6 mice; settings: intravenous twice a week for 5 weeks
Procedure: All animal experiments performed for the present invention were approved by the Institutional Animal Care and Use Committee of Hanyang University. […] Thereafter, depending on the experimental group, 60 μg/one time of FBP8 were administered by intravenous injection twice a week for a total of 5 weeks (FIG. 13), or FBP7 was administered by subcutaneous injection twice a day.
Furthermore, a terminal deoxynucleotidyl transferase dUTP nick end labeling (TUNEL) analysis for each tissue was performed with an in situ cell death detection kit (Millipore, USA). Thereafter, the fluorescence signals were analyzed under a TCS-SP5 confocal microscope by staining the nuclei with Hoechst 33342, and the fluorescence signals of each cell were analyzed with the Image J program.
Obesity model mice were produced by feeding normal mice a high fat diet for 8 weeks, and FBP-8 was administered by intravenous injection twice a week for a total of 5 weeks (FIG. 13). After five weeks, the obesity model mice were sacrificed to isolate white adipose tissues and liver tissues and analyze the proportion of dead cells by TUNEL staining.

[6] = target: T2, Fas on Jurkat cell line (human blood cancer cell line in which Fas is always expressed) (human, UniProt P25445 26-335); experiment: cell-based or functional assay
T2 sequence (looked up): T1 sequence (P25445 26-335)

serum stability [1]: the best
Molecule: N[C@@H](Cc1ccc(O)cc1)C(=O)N[C@@H](CS)C(=O)N[C@@H](CC(=O)O)C(=O)N[C@@H](CCC(=O)O)C(=O)N[C@@H](Cc1c[nH]cn1)C(=O)N[C@@H](Cc1ccccc1)C(=O)N[C@@H](Cc1ccc(O)cc1)C(=O)O [FBP-7, YCDEHFY] (H-YCDEHFY-OH; N-terminus and C-terminus assumed)

Molecule: CCCCCCCCCCCCCCCC(=O)N[C@@H](CCC(=O)NCCCC[C@H](NC(=O)[C@H](C)NC(=O)[C@H](C)NC(=O)[C@H](CCC(N)=O)NC(=O)CNC(=O)[C@H](CCC(=O)O)NC(=O)[C@H](CC(C)C)NC(=O)[C@H](Cc1ccc(O)cc1)NC(=O)[C@H](CO)NC(=O)[C@H](CO)NC(=O)[C@@H](NC(=O)[C@H](CC(=O)O)NC(=O)[C@H](CO)NC(=O)[C@@H](NC(=O)[C@H](Cc1ccccc1)NC(=O)[C@@H](NC(=O)CNC(=O)[C@H](CCC(=O)O)NC(=O)[C@H](C)NC(=O)[C@@H](N)Cc1cnc[nH]1)[C@@H](C)O)[C@@H](C)O)C(C)C)C(=O)N[C@@H](CCC(=O)O)C(=O)N[C@@H](Cc1ccccc1)C(=O)N[C@H](C(=O)N[C@@H](C)C(=O)N[C@@H](Cc1c[nH]c2ccccc12)C(=O)N[C@@H](CC(C)C)C(=O)N[C@H](C(=O)N[C@@H](CCCNC(=N)N)C(=O)NCC(=O)N[C@@H](CCCNC(=N)N)C(=O)NCC(=O)O)C(C)C)[C@@H](C)CC)C(=O)O [liraglutide]
side effects [2]: nausea, vomiting, diarrhea, and constipation

binding to Jurkat cells (Alexa647 signal) [3]: bound to Jurkat cells at similar levels
Molecule: YCDEHFAY (Fas binding peptide-A (FBP-A))

Molecule: YCNSTVCY (control peptide) [CtrFBP, control peptide used as negative control, reference compound]
binding to Jurkat cells (Alexa647 signal) [3]: hardly bound to Jurkat cells | apoptosis level [4]: 23±5.12% | proportion of dead cells in liver tissue (TUNEL) [5]: 17+7.98% | proportion of dead cells in white adipose tissue (TUNEL) [5]: 51±2.98%

apoptosis level of Jurkat cells treated with Fas ligand (FasL) and peptide [6]: 17%
B1: Fas Blocking Peptide (FBP or FBP-8) (peptide)
peptide: YCDEHFCY
modifications: cysteine pairing not given here; also: Alexa647 or Alexa 488 label, attachment site not given here

apoptosis level of Jurkat cells treated with Fas ligand (FasL) and peptide [6]: 15%
Molecule: YCDEHFAY (also: Alexa647 label, attachment site not given here) [Fas Blocking Peptide A (FBPA)]

apoptosis level of Jurkat cells treated with Fas ligand (FasL) and peptide [6]: 31%
B2: Control Peptide (CTRP) (peptide)
peptide: YCNSTVCY
modifications: cysteine pairing not given here; also: Alexa647 label, attachment site not given here

apoptosis level of Jurkat cells treated with Fas ligand (FasL) and peptide [6]: 14%
Molecule: YCDEHFY (also: Alexa647 label, attachment site not given here) [Fas Blocking Peptide 7 (FBP7)]
